From article PMC2115722

Target: Acanthamoeba actin (Acanthamoeba castellanii)
Assay: cross-linking

Question: Which stoichiometry N (profilin per actin) does the source give for “Acanthamoeba profilin I (natural protein)” here?
Answer: 1
